Assays:
[1] = biological target: VRC01GL IgG (inferred germline precursor of the VRC01 antibody) (human); assay: BLI; IgG immobilised on anti-AHC biosensors (20 µg/ml in PBS); DS-SOSIP trimer or 426c core in solution, dilution series; Octet Red 96, 29°C, 500 r.p.m.; kinetic buffer (1X PBS, 0.01% BSA, 0.02% Tween 20, 0.005% NaN3); 1:1 binding model; relative apparent affinities
[2] = biological target: 12A21GL IgG (human); assay: as above
[3] = biological target: VRC01GL Fab (human); assay: BLI; Fab immobilised on anti-human Fab-CH1 (FAB2G) biosensors; 426c core in solution; Octet Red 96, 29°C, 500 r.p.m.; kinetic buffer (1X PBS, 0.01% BSA, 0.02% Tween 20, 0.005% NaN3); 1:1 binding model; relative apparent affinities
[4] = biological target: VRC01GL IgG (inferred germline precursor of the VRC01 antibody); assay: BLI; details: 426c core (293F-expressed) injected at 0.5, 1, 2.5, 4, 5, 10, 20, 40, 80, 160 µM

Question: How did the Kd [1] turn out when “426c DS-SOSIP D3 trimer (from UniProt Q2N0S6 1-860) (complex)” was run?
Answer: 43 nM

Question: Which Kd [1] does the source give for “426c S278A core, HEK293 GnTI-/--expressed (domain or fragment)” here?
Answer: 204 nM

Question: Which fold change of KD against the 426c core [2] does the source give for “426c S278T core, HEK293 GnTI-/--expressed (domain or fragment)” here?
Answer: 10 fold

Question: What about the fold change of KD against the 426c core [1] of the same substance?
Answer: 10 fold

Question: What does the source list for “426c core (wild-type NLGSs), HEK293 GnTI-/--expressed (domain or fragment)”?
Answer: Kd [3]: 15000 nM; Kd [1]: 2000 nM

Question: Which Kd [3] does the source give for “426c core (wild-type NLGSs), HEK293F-expressed (domain or fragment)” here?
Answer: 11000 nM

Question: How did the Kd [4] turn out when “426c core (wild-type NLGSs), HEK293F-expressed S278A” was run?
Answer: 1900 nM

Question: “426c core (wild-type NLGSs), HEK293F-expressed S278A; T462A” was tested. Which Kd [4] did it give?
Answer: 2500 nM

Question: “426c core (wild-type NLGSs), HEK293F-expressed S278A; T465A” was tested. Which Kd [4] did it give?
Answer: 8900 nM

Question: How did the Kd [1] turn out when “EndoH-treated 426c core (HEK293 GnTI-/--expressed) (domain or fragment)” was run?
Answer: 245 nM

Reference: article PMC6237438
